Test results reported in US20160002331A1 (Pfizer, published 2016).
Where a chain is given by its changes, count along the chain named. Names and notes keep the numbering of the source. Values joined by “and” are separate entries in the source; they are usually repeats but may differ in a detail not shown here. Equal values may be shown once.

T1: human Notch1 NRR_Avi_His recombinant protein (human, UniProt P46531 1434-1737)
T1 construct: Secreted from CHO-PACE cells; cleaved at S1 into an N-terminal ~26 kDa half (LNR-A, B, C, HD1) and a C-terminal ~12 kDa half (HD2 and tag) that stay associated non-covalently; written here as one chain; also called recombinant human Notch1 NRR; human Notch1 NRR immunogen
T1 sequence: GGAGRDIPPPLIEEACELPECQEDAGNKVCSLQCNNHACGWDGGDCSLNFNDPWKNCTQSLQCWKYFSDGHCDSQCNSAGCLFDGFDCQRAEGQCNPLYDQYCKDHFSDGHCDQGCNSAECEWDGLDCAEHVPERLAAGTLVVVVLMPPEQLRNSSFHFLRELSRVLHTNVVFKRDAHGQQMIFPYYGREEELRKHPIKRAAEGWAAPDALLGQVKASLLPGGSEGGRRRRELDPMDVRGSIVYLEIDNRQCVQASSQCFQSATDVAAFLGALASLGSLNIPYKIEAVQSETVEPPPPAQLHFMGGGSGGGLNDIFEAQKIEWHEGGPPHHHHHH

B1: parental rat 438 (antibody, V domains shown)
VH: AVQLVESGGGLVQPGRSLKLSCTASGFTFSSFAMAWVRQAPTKGLEWVASISYGGADTYYRDSVKGRFTISRDNAKSSLYLQMDSLRSEDTSTYYCAKDLPYYGYTPFVMDAWGQGTSVTVSS
VL: DIMLTQSPPTLSVTPGETISLSCRASQRINTDLHWYQQKPNESPRVLIKFASQTISGVPSRFSGSGSGTDFTLNINRVEPEDFSVYYCQQSNSWPYTFGAGTKLELK
notes: Rat monoclonal IgG from a hybridoma
B2: humanized 438 VH1.1/VL1.1 (antibody, human IgG1, V domains shown)
VH: EVQLVESGGGLVQPGGSLRLSCAASGFTFSSFAMAWVRQAPGKGLEWVASISYGGADTYYRDSVKGRFTISRDNAKNSLYLQMNSLRAEDTAVYYCAKDLPYYGYTPFVMDAWGQGTLVTVSS
VL: DIQLTQSPSSLSASVGDRVTITCRASQRINTDLHWYQQKPGKAPKVLIKFASQTISGVPSRFSGSGSGTDFTLTISSLQPEDFATYYCQQSNSWPYTFGQGTKLEIK
B3: humanized 438 VH1.1/VL1.5 (antibody, human IgG1, V domains shown)
VH: B2 VH
VL: B2 VL with L4M, V46L
B4: humanized 438 VH1.1/VL1.0 (antibody, human IgG1, V domains shown)
VH: B2 VH
VL: B2 VL with L4M, V46L, K49Y
B5: humanized 438 VH1.1/VL1.3 (antibody, human IgG1, V domains shown)
VH: B2 VH
VL: B2 VL with V46L, K49Y
B6: humanized 438 VH1.1/VL1.9 (antibody, human IgG1, V domains shown)
VH: B2 VH
VL: B2 VL with Q3M
B7: humanized 438 VH1.0/VL1.1 (antibody, human IgG1, V domains shown)
VH: B2 VH with K98R
VL: B2 VL
B8: rat 438-hIgG1 (antibody, V domains shown)
VH: B1 VH
VL: B1 VL
notes: also called r438-hIgG
B9: rat 351(R58Y)-mIgG1 (antibody, V domains shown)
VH: EVQLVESGGGLVQPGRSLKVSCLASGFTFSHYGMNWIRQAPGKGLDWVASISRSGSYIYYVDTVKGRFTVSRDIAKNTLYLQMTSLRSEDTALYYCAREGQFGDYFEYWGQGVMVTVSS
VL: DIMLTQSPATLSVTPGERISLSCRASQKISTNLHWYQQKPNESPRILIKYASQTISGIPSRFSGSGSGTDFTLHINTVEPEDFSVYYCQQTNSWPLTFGSGTKLEIK
B10: rat 351(R58Y/V60R)-mIgG1 (antibody, V domains shown)
VH: B9 VH with V61R
VL: B9 VL
B11: rat 351(R58Y/V60A)-mIgG1 (antibody, V domains shown)
VH: B9 VH with V61A
VL: B9 VL
B12: humanized 438 VH1.0/VL1.8 (antibody, human IgG1, V domains shown)
VH: B2 VH with K98R
VL: B2 VL with L4M

What follows are binders tested against T2, full-length human Notch1 expressed on the cell surface (human, UniProt P46531 19-2555) (assay: cell-based ELISA, U-2 OS cells expressing full-length human Notch1).
T2 construct: whole, on cells; On U-2 OS cells stably overexpressing it (ELISAs, reporter cells); also called cell surface full-length human Notch1; native Notch1 receptor
T2 sequence (P46531 19-2555): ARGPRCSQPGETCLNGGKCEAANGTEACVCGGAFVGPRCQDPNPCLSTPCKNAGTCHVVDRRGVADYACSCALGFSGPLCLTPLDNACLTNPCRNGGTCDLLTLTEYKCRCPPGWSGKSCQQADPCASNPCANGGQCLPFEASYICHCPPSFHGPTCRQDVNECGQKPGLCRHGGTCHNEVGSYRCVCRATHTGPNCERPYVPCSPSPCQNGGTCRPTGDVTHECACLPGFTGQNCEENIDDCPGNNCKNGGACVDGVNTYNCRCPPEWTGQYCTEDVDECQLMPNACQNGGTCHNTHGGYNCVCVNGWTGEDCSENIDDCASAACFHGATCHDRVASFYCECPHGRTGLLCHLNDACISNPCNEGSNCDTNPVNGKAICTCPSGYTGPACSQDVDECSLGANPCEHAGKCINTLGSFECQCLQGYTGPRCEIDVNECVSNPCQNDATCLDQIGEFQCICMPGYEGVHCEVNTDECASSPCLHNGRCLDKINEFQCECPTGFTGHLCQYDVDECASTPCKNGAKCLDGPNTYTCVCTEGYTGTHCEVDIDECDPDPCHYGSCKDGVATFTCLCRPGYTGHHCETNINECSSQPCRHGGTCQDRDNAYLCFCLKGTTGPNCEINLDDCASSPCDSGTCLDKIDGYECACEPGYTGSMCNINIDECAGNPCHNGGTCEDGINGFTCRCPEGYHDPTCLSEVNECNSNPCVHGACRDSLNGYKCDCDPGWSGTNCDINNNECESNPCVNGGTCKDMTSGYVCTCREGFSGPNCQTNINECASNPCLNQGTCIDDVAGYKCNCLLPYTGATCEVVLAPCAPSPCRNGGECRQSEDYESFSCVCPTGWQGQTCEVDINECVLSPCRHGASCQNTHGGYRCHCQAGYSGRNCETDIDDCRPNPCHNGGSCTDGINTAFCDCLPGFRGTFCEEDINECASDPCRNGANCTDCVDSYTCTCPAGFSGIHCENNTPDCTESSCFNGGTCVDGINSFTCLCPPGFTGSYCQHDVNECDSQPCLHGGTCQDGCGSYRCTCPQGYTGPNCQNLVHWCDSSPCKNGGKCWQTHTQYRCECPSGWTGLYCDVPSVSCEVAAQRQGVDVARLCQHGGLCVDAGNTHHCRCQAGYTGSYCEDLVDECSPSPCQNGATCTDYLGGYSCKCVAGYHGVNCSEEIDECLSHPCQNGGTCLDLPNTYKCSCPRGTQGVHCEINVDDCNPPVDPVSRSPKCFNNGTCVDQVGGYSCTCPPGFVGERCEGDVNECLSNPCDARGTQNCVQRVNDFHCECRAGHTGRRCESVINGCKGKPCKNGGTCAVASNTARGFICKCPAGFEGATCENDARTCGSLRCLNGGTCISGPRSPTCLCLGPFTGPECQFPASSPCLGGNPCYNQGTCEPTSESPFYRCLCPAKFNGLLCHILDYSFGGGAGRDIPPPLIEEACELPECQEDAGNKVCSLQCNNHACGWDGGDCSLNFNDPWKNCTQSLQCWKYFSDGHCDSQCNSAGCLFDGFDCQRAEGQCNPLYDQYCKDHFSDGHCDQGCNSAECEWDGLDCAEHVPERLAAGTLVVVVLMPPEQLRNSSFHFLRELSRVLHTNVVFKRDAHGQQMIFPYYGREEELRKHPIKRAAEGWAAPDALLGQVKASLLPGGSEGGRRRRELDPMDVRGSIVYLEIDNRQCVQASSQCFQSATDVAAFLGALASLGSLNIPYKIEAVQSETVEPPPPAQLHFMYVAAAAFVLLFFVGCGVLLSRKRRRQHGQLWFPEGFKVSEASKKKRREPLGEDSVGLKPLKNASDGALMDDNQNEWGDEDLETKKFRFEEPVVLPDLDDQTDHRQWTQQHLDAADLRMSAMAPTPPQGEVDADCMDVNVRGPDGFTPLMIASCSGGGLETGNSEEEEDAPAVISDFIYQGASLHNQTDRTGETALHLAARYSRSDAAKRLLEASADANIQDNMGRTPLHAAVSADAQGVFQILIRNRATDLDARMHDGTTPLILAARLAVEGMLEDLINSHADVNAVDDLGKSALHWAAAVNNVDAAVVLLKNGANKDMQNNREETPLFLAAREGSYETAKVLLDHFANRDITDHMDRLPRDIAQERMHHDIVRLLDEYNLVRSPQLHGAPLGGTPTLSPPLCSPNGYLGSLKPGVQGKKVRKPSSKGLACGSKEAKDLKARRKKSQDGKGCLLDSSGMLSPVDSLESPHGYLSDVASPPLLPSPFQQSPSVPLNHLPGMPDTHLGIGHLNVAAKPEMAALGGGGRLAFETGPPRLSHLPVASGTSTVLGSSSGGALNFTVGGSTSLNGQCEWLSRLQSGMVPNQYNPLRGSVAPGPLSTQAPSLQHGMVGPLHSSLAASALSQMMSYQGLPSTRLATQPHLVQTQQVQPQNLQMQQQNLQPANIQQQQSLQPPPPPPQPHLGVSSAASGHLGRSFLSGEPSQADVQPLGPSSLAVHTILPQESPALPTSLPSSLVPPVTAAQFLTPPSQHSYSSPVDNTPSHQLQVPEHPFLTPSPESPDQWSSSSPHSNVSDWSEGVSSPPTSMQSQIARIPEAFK
Protocol: (§1) Supernatants from clones displaying positive binding to immunogens in recombinant Notch1 NRR based ELISAs described above were then screened for cell surface Notch1 binding in a cell-based ELISA. U-2 OS cells stably overexpressing human or mouse full length Notch1 protein on cell surface were plated at 50,000 cells/well in 96 well plates (white opaque, BD/VWR) the day before ELISA assay. On the day of the ELISA, culture media were removed from wells and serially diluted (1:3 in blocking buffer) antibody solutions or hybridoma culture supernatants were applied to the plate. Plates were incubated at room temperature for 2 hours before being washed with PBS-Mg/Ca. HRP-conjugated secondary antibody was then applied and incubated with cells for 1 hour as described above for recombinant protein ELISA. Plates were washed with PBS-Mg/Ca before being developed with Pico-Chemiluminescent developing kit (Thermal Scientific), and chemiluminescence measurements were performed per manufacturer's instructions. Data plotting and analyses were performed with Microsoft Excel and Graphpad-Prizm software.
B1 was tested, and the EC50 was 0.213 nM. With B2 the EC50 was 0.177 nM. With B3 the EC50 was 0.219 nM. B4 was tested, and the EC50 was 0.296 nM. In the case of B5, the EC50 is reported as 0.152 nM. B6 was tested, and the EC50 was 0.178 nM. Binder B7 has an EC50 of 0.305 nM.

The binders below were run against T1, human Notch1 NRR_Avi_His recombinant … (assay: SPR (Biacore T100), antibody captured by anti-human IgG-Fc, NRR_Avi_His as analyte, 1:1 Langmuir model).
Protocol: (§2) The kinetic constants of the anti-Notch1 NRR interactions were determined by surface plasmon resonance (Biacore® T100, Biacore Inc., Piscataway, N.J.). Flow cells of a CM5 chip were immobilized with approximately 10,000 Resonance Unit (RU) of anti-human IgG-Fc (Biacore®) in 10 mM Glycine, pH 5.0 at 10 μl/min for 600 seconds. […] Association of four concentrations of human Notch1 NRR_Avi_His recombinant protein (from 3.7-100 nM) and a zero concentration (running buffer) at 100 μl/min were recorded for 3 minutes in TBS with 1 mM CaCl₂. Dissociation of the complexes was measured for 10 minutes. The surface of the chip was regenerated by injecting 3M MgCl₂ with 3 mM EGTA for 60 seconds at 10 μl/min. Curves obtained after subtraction of the reference and buffer signals were fitted to a 1:1 Langmuir binding model with Biacore® T100 Evaluation Software (Biacore®).
B8 gave a Kd of 4.34 nM, a koff of 0.000229 s⁻¹ and a kon of 52700 M⁻¹ s⁻¹. For B2, the Kd was 9.65 nM and 9.6 nM, the koff was 0.000422 s⁻¹ and the kon was 43700 M⁻¹ s⁻¹. B4 was tested, and the Kd was 21.8 nM, the koff was 0.00103 s⁻¹ and the kon was 47400 M⁻¹ s⁻¹. In the case of B5, the Kd is reported as 1.83 nM, the koff is reported as 0.000442 s⁻¹ and the kon is reported as 242000 M⁻¹ s⁻¹. B7 was tested, and the Kd was 6.42 nM and 6.4 nM, the koff was 0.000389 s⁻¹ and the kon was 60500 M⁻¹ s⁻¹.

Each binder was assayed against T2, full-length human Notch1 expressed on … (assay: cell-based or functional assay).
In the case of B9, the “IC50, Notch1 signaling inhibition co-culture reporter assay” value is reported as 0.21 nM and the “Maximal Inhibition (%), Notch1 signaling inhibition co-culture reporter assay” value (“Maximal Inhibition (%)” below) is reported as 95.3%. In the case of B10, the “IC50, Notch1 signaling inhibition co-culture reporter assay” value is reported as 0.11 nM and the “Maximal Inhibition (%)” value is reported as 95.3%. With B11 the “IC50, Notch1 signaling inhibition co-culture reporter assay” value was 0.16 nM and the “Maximal Inhibition (%)” value was 95.3%.

These binders were tested against Notch1 receptor with L1575P mutation (HPB-ALL cells) (UniProt P46531 19-2555, limits assumed) (assay: cell-based or functional assay).
Chain of Notch1 receptor with L1575P mutation (HPB-ALL cells) (P46531 19-2555 L1593P limits assumed): as the sequence (P46531 19-2555) above, with L1575P counted along it
For B9, the “IC50, MTS viability assay of HPB-ALL leukemia cells” value was 2.17 nM. With B11 the “IC50, MTS viability assay of HPB-ALL leukemia cells” value was 2.49 nM.

These binders were tested against T2, full-length human Notch1 expressed on … (assay: competition ELISA on U-2 OS cells expressing full-length human Notch1; competitor 0.8 nM biotinylated rat 438).
Protocol: (§3) In a similar manner as described for recombinant protein or cell based ELISAs, 96 well cell culture plates were either coated with Notch1 NRR-Avi_His protein (hi-bound co-Star plates), or seeded with full length Notch1 expressing U-2 OS cells (cell culture plate, Co-star), respectively.
(§4) After incubation for 2 hours, the plates were washed, as described above, and HRP-conjugated streptavidin (Southern Biotech) diluted 1:5000 in blocking buffer was applied. Incubation with streptavidin was allowed for 30 min before the plates were washed again and developed with TMB solution for 10 minutes. Developing reaction was stopped by adding 0.18M H₂SO₄ and absorbance at 450 nm was measured. Data plotting and analyses were performed with Microsoft Excel and Graphpad-Prizm software.
With B8 the EC50 was 4.4 nM. B2 gave an EC50 of 2.4 nM. B3 showed an EC50 of 3.3 nM. Binder B4 has an EC50 of 2.8 nM. Binder B12 has an EC50 of 11.6 nM. B5 showed an EC50 of 2.8 nM. With B6 the EC50 was 2.2 nM. B7 was tested, and the EC50 was 4 nM.

These binders were tested against T1, human Notch1 NRR_Avi_His recombinant … (assay: competition ELISA on coated human Notch1 NRR_Avi_His; competitor 0.8 nM biotinylated rat 438).
Protocol: as §3, §4
Binder B8 has an EC50 of 2.1 nM. In the case of B2, the EC50 is reported as 0.6 nM. B3 gave an EC50 of 7 nM. In the case of B4, the EC50 is reported as 1.1 nM. B12 was tested, and the EC50 was 2.1 nM. Work on B5 yielded an EC50 of 2.5 nM. In the case of B6, the EC50 is reported as 0.4 nM. B7 was tested, and the EC50 was 0.7 nM.

Biological target: T2, full-length human Notch1 expressed on …
Experiment: cell-based or functional assay
Remark: another data set of the same source
B8 was tested, and the “IC50, human Notch1 reporter gene co-culture assay (DLL4-HEK293)” value was 0.65 nM. In the case of B2, the “IC50, human Notch1 reporter gene co-culture assay (DLL4-HEK293)” value is reported as 0.657 nM. B3 was tested, and the “IC50, human Notch1 reporter gene co-culture assay (DLL4-HEK293)” value was 0.35 nM. For B4, the “IC50, human Notch1 reporter gene co-culture assay (DLL4-HEK293)” value was 0.46 nM. With B12 the “IC50, human Notch1 reporter gene co-culture assay (DLL4-HEK293)” value was 1.87 nM. With B5 the “IC50, human Notch1 reporter gene co-culture assay (DLL4-HEK293)” value was 0.45 nM. With B6 the “IC50, human Notch1 reporter gene co-culture assay (DLL4-HEK293)” value was 0.38 nM. B7 was tested, and the “IC50, human Notch1 reporter gene co-culture assay (DLL4-HEK293)” value was 1.19 nM.

The binders below were run against T3, full-length mouse Notch1 expressed on the cell surface of U-2 OS cells (mouse, UniProt Q01705 19-2531) (assay: cell-based or functional assay).
T3 sequence (Q01705 19-2531): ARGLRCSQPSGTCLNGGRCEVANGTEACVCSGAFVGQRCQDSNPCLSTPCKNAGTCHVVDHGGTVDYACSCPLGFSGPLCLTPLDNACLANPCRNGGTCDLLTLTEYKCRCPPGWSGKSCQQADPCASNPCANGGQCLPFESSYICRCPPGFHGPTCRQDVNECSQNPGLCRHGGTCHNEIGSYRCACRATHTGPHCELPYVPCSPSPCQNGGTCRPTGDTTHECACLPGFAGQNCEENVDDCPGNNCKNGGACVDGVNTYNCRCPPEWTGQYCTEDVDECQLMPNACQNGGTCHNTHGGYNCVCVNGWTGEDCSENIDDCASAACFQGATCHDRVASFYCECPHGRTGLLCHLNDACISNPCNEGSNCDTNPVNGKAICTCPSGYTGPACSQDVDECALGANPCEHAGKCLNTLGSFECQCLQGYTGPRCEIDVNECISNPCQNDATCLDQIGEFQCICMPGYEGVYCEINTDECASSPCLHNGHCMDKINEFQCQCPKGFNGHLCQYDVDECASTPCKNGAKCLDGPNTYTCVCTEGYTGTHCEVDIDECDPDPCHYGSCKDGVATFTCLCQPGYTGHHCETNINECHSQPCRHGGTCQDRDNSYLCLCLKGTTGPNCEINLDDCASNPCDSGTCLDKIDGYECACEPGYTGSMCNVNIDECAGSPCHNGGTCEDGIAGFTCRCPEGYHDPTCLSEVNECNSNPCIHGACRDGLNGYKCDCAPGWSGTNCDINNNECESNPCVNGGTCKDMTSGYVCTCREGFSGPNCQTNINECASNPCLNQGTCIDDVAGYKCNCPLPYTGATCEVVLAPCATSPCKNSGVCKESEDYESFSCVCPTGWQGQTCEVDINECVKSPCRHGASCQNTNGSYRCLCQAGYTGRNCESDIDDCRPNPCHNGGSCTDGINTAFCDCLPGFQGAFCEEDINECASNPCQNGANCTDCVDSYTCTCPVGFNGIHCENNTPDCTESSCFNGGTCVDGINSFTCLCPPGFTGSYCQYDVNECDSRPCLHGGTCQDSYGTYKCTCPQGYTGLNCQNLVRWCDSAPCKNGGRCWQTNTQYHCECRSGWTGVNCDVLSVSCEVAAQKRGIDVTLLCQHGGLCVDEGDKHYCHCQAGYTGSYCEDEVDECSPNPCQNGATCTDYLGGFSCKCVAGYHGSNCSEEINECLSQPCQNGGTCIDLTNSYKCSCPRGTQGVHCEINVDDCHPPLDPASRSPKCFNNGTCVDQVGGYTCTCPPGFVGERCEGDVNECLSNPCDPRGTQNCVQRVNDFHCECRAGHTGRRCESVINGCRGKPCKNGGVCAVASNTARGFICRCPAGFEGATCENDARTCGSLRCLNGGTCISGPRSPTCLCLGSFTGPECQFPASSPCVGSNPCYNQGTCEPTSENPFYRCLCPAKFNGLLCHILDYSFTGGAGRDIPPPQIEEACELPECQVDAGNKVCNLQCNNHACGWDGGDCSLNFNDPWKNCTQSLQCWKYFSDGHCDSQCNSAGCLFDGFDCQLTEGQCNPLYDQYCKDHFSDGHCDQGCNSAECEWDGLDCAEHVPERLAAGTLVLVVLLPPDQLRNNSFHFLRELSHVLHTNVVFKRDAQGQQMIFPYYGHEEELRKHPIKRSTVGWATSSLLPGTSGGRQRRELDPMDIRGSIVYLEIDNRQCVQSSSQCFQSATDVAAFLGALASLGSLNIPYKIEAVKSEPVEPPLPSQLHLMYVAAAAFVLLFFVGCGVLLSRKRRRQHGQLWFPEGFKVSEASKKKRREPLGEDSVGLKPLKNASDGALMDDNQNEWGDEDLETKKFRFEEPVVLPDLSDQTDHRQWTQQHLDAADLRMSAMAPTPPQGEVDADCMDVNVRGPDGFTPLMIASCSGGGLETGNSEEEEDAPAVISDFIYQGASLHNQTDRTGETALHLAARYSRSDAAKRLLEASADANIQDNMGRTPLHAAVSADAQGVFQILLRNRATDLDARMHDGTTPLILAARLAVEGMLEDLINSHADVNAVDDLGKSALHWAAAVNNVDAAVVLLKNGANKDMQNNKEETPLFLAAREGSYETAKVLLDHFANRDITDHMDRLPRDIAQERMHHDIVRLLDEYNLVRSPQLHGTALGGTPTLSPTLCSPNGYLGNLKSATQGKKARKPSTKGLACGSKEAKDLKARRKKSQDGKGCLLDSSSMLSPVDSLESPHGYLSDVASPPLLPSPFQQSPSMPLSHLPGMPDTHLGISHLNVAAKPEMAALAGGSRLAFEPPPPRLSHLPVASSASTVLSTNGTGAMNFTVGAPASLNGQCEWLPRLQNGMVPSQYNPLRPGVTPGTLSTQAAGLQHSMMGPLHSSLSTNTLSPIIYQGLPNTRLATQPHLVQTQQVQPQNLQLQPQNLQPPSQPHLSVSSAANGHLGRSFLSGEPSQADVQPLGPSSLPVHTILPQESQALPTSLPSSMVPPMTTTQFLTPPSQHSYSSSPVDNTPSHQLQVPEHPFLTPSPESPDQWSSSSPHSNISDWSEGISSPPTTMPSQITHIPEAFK
With B3 the “IC50, mouse Notch1 reporter gene co-culture assay (DLL4-HEK293)” value was 0.5 nM. In the case of B12, the “IC50, mouse Notch1 reporter gene co-culture assay (DLL4-HEK293)” value is reported as 1.37 nM. With B5 the “IC50, mouse Notch1 reporter gene co-culture assay (DLL4-HEK293)” value was 0.62 nM.

Each binder was assayed against T1, human Notch1 NRR_Avi_His recombinant … (assay: SPR (Biacore T100), ratio of KD to that of rat 438-hIgG1).
Protocol: as §2
With B8 the “Fold difference from rat 438” value was 1 fold. In the case of B2, the “Fold difference from rat 438” value is reported as 2.21 fold. In the case of B4, the “Fold difference from rat 438” value is reported as 5.02 fold. B5 was tested, and the “Fold difference from rat 438” value was 0.42 fold. With B7 the “Fold difference from rat 438” value was 1.47 fold.

These binders were tested against T3, full-length mouse Notch1 expressed on … (assay: cell-based ELISA, U-2 OS cells expressing full-length mouse Notch1).
Protocol: as §1
B1 was tested, and the EC50 was 0.172 nM. For B2, the EC50 was 0.129 nM. B3 was tested, and the EC50 was 0.146 nM. In the case of B4, the EC50 is reported as 0.144 nM. B5 gave an EC50 of 0.0934 nM. B6 was tested, and the EC50 was 0.137 nM. B7 showed an EC50 of 0.229 nM.
